Measurements published in patent US20230330251A1, “METHODS FOR TREATING CANCERS WITH ANTIBODY DRUG CONJUGATES (ADC) THAT BIND TO 191P4D12 PROTEINS” (AGENSYS, INC., priority 2020, published 2023).

System: subjects with previously treated locally advanced or metastatic urothelial cancer
Assay: EV-301: safety, adverse events (safety analysis set, NCI-CTCAE v4.03, MedDRA)
[1] = Any Grade, N = 296 EV, 291 chemotherapy
[2] = Baseline PN, n = 55 EV, 58 chemotherapy
[3] = Grade 1, N = 296 EV, 291 chemotherapy
[4] = Grade 2, N = 296 EV, 291 chemotherapy
[5] = Grade 3, N = 296 EV, 291 chemotherapy
[6] = Grade 4, N = 296 EV, 291 chemotherapy
[7] = Grade Any, N = 296 EV, 291 chemotherapy

Excerpt: The Safety Analysis Set (SAF) will be used for the safety analysis. All subjects who are randomized and received study drug will be included in the SAF. The frequency of AEs and the serious AEs will be summarized by MedDRA system organ class and preferred term. In addition, summary statistics will be provided for the following safety parameters: • Laboratory values • Vital sign measurements • ECOG PS
An AE is any untoward medical occurrence in a subject, temporally associated with the use of a medicinal product, whether or not considered related to the medicinal product. An AE can therefore be any unfavorable and unintended sign (including an abnormal laboratory finding), symptom, or disease (new or exacerbated) temporally associated with the use of a medicinal product.
AEs, including abnormal clinical laboratory values, will be graded using the NCI-CTCAE guidelines (Version 4.03).
The safety analysis set (SAF), which consists of all subjects who received any amount of study drug, will be used for safety analyses.
SAF was used to perform all safety analysis. All treated subjects were analyzed according to the treatment they received.
The number and percentage of AEs by severity were also summarized. All AEs were listed.
A study drug-related TEAE is defined as any TEAE with a causal relationship of YES by the investigator. AEs of interest as classified by customized MedDRA queries and/or standard MedDRA queries were also summarized.

Substance: enfortumab vedotin
- Treatment-related adverse events of grade 3 or higher (% of patients): 51.4%
- Treatment-related adverse events resulting in dose reduction (% of patients): 32.4%
- Treatment-related adverse events resulting in interruption of treatment (% of patients): 51.0%
- Treatment-related adverse events resulting in withdrawal of treatment (% of patients): 13.5%
- grade 3 or higher treatment-related decreased neutrophil count (% of patients): 6.1%
- grade 3 or higher treatment-related fatigue (% of patients): 6.4%
- grade 3 or higher treatment-related maculopapular rash (% of patients): 7.4%
- Grade ≥3 TRAE: Decreased neutrophil count, % (All, N = 296 EV, 291 SC): 6.1%
- Grade ≥3 TRAE: Decreased white blood cell count, % (All, N = 296 EV, 291 SC): 1.4%
- Grade ≥3 TRAE: Fatigue, % (All, N = 296 EV, 291 SC): 6.4%
- Grade ≥3 TRAE: Febrile neutropenia, % (All, N = 296 EV, 291 SC): 0.7%
- Grade ≥3 TRAE: Maculopapular rash, % (All, N = 296 EV, 291 SC): 7.4%
- Grade ≥3 TRAE: Neutropenia, % (All, N = 296 EV, 291 SC): 4.7%
- TRAE: Alopecia, Number of patients [1]: 134
- TRAE: Alopecia, percent [1]: (45.3) percent
- TRAE: Anemia, Number of patients [1]: 34
- TRAE: Anemia, percent [1]: (11.5) percent
- TRAE: Any adverse event, Number of patients [1]: 278
- TRAE: Any adverse event, percent [1]: (93.9) percent
- TRAE: Decreased appetite, Number of patients [1]: 91
- TRAE: Decreased appetite, percent [1]: (30.7) percent
- TRAE: Decreased neutrophil count, Number of patients [1]: 30
- TRAE: Decreased neutrophil count, percent [1]: (10.1) percent
- TRAE: Decreased white-cell count, Number of patients [1]: 16
- TRAE: Decreased white-cell count, percent [1]: (5.4) percent
- TRAE: Diarrhea, Number of patients [1]: 72
- TRAE: Diarrhea, percent [1]: (24.3) percent
- TRAE: Dysgeusia, Number of patients [1]: 72
- TRAE: Dysgeusia, percent [1]: (24.3) percent
- TRAE: Fatigue, Number of patients [1]: 92
- TRAE: Fatigue, percent [1]: (31.1) percent
- TRAE: Febrile neutropenia, Number of patients [1]: 2
- TRAE: Febrile neutropenia, percent [1]: (0.7) percent
- TRAE: Maculopapular rash, Number of patients [1]: 48
- TRAE: Maculopapular rash, percent [1]: (16.2) percent
- TRAE: Nausea, Number of patients [1]: 67
- TRAE: Nausea, percent [1]: (22.6) percent
- TRAE: Neutropenia, Number of patients [1]: 20
- TRAE: Neutropenia, percent [1]: (6.8) percent
- TRAE: Peripheral sensory neuropathy, Number of patients [1]: 100
- TRAE: Peripheral sensory neuropathy, percent [1]: (33.8) percent
- TRAE: Pruritus, percent [1]: (32.1) percent
- Treatment-emergent Hyperglycemia, % (Baseline BMI <30 kg/m^2, n = 255 EV, 244 chemotherapy): 9.0%
- Treatment-emergent Hyperglycemia, % (Baseline BMI ≥30 kg/m^2, n = 41 EV, 46 chemotherapy): 29.3%
- Treatment-emergent Hyperglycemia, % [2]: 38.2%
- Treatment-emergent Peripheral motor neuropathy, % [2]: 20.0%
- Treatment-emergent Peripheral neuropathy, % [2]: 49.1%
- Treatment-emergent Peripheral sensory neuropathy, % [2]: 40.0%
- TRAE of special interest: Blurred vision, % [3]: 3.4%
- TRAE of special interest: Corneal disorders, % [3]: 0.7%
- TRAE of special interest: Dry eye, % [3]: 11.5%
- TRAE of special interest: Extravasation site reactions, % [3]: 0.3%
- TRAE of special interest: Hyperglycemia, % [3]: 1.0%
- TRAE of special interest: Infusion-related reactions, % [3]: 3.7%
- TRAE of special interest: Infusion-related reactions, Local events, % [3]: 0.3%
- TRAE of special interest: Infusion-related reactions, Systemic events, % [3]: 3.4%
- TRAE of special interest: Ocular disorders, % [3]: 13.5%
- TRAE of special interest: Peripheral neuropathy, % [3]: 14.9%
- TRAE of special interest: Peripheral neuropathy, Motor events, % [3]: 1.7%
- TRAE of special interest: Peripheral neuropathy, Sensory events, % [3]: 14.5%
- TRAE of special interest: Rash, % [3]: 13.9%
- TRAE of special interest: Severe cutaneous adverse reaction, % [3]: 6.8%
- TRAE of special interest: Skin reactions, % [3]: 13.9%
- TRAE of special interest: Blurred vision, % [4]: 0.7%
- TRAE of special interest: Dry eye, % [4]: 3.7%
- TRAE of special interest: Extravasation site reactions, % [4]: 0.7%
- TRAE of special interest: Hyperglycemia, % [4]: 1.4%
- TRAE of special interest: Infusion site reactions, % [4]: 0.7%
- TRAE of special interest: Infusion-related reactions, % [4]: 3.7%
- TRAE of special interest: Infusion-related reactions, Local events, % [4]: 0.7%
- TRAE of special interest: Infusion-related reactions, Systemic events, % [4]: 3.0%
- TRAE of special interest: Ocular disorders, % [4]: 4.4%
- TRAE of special interest: Peripheral neuropathy, % [4]: 26.4%
- TRAE of special interest: Peripheral neuropathy, Motor events, % [4]: 4.1%
- TRAE of special interest: Peripheral neuropathy, Sensory events, % [4]: 25.7%
- TRAE of special interest: Rash, % [4]: 15.5%
- TRAE of special interest: Severe cutaneous adverse reaction, % [4]: 8.4%
- TRAE of special interest: Skin reactions, % [4]: 18.6%
- TRAE of special interest: Dry eye, % [5]: 0.7%
- TRAE of special interest: Hyperglycemia, % [5]: 3.7%
- TRAE of special interest: Infusion-related reactions, % [5]: 1.4%
- TRAE of special interest: Infusion-related reactions, Systemic events, % [5]: 1.4%
- TRAE of special interest: Ocular disorders, % [5]: 0.7%
- TRAE of special interest: Peripheral neuropathy, % [5]: 5.1%
- TRAE of special interest: Peripheral neuropathy, Motor events, % [5]: 1.7%
- TRAE of special interest: Peripheral neuropathy, Sensory events, % [5]: 3.7%
- TRAE of special interest: Rash, % [5]: 14.2%
- TRAE of special interest: Severe cutaneous adverse reaction, % [5]: 4.7%
- TRAE of special interest: Skin reactions, % [5]: 14.2%
- TRAE of special interest: Rash, % [6]: 0.3%
- TRAE of special interest: Severe cutaneous adverse reaction, % [6]: 0.3%
- TRAE of special interest: Skin reactions, % [6]: 0.3%
- TRAE of special interest: Hyperglycemia, % (Grade 5, N = 296 EV, 291 chemotherapy): 0.3%
- TRAE of special interest: Blurred vision, % [7]: 4.1%
- TRAE of special interest: Corneal disorders, % [7]: 0.7%
- TRAE of special interest: Dry eye, % [7]: 15.9%
- TRAE of special interest: Extravasation site reactions, % [7]: 1.0%
- TRAE of special interest: Hyperglycemia, % [7]: 6.4%
- TRAE of special interest: Infusion site reactions, % [7]: 0.7%
